{
  "source": "patent US20260242839A1",
  "about": "“GLYCOSIDE PRODUCT BIOSYNTHESIS AND RECOVERY” (Manus Bio Inc., priority 2023, published 2026)",
  "system": "steviol glycoside",
  "assay": "steviol glycoside bioconversion by E. coli expressing individual mutations of UGT SEQ ID NO: 13",
  "type": "cell-based",
  "conditions": "fold improvement of % conversion vs parent UGT SEQ ID NO: 13; stevia leaf extract and glucose fed; 37° C., 48 hr",
  "source_text": "A UGT enzyme referred to as MbUGT1,2 is described in U.S. Pat. No. 10,743,567, which is hereby incorporated by reference. An engineered version of MbUGT1,2 (SEQ ID NO: 13) is described in US 2020/0087692, which is hereby incorporated by reference in its entirety. The UGT enzyme of SEQ ID NO: 13 was further engineered to improve activity for steviol glycoside bioconversion. […] Fold improvement is with respect to % steviol glycoside conversion of the parent UGT enzyme (SEQ ID NO: 13). SEQ ID NO: 14 has the following mutations from SEQ ID NO: 13: G5N, F186T, V397S. Stevia leaf extract and glucose were fed to the bioconversion strains. Bioconversion took place at 37° C. for 48 hr. Data were quantified by reverse phase LC DAD to quantify conversion of steviol glycosides.\nFold improvement (FI) is with respect to % steviol glycoside conversion.",
  "data": [
    {"molecule": "F186I: mutation to UGT enzyme of SEQ ID NO: 13 (protein) MATKGSSGMSLAERFWLTLSRSSLVVGRSCVEFEPETVPLLSTLRGKPITFLGLMPPLHEGRREDGEDATVRWLDAQPAKSVVYVALGSEVPLGVEKVHELALGLELAGTRFLWALRKPTGVSDADLLPAGFEERTRGRGVVATRWVPQMSILAHAAVGAFLTHCGWNSTIEGLMFGHPLIMLPIIGDQGPNARLIEAKNAGLQVARNDGDGSFDREGVAAAIRAVAVEEESSKVFQAKAKKLQEIVADMACHERYIDGFIQQLRSYKDDSGYSSSYAAAAGMHVVICPWLAFGHLLPCLDLAQRLASRGHRVSFVSTPRNISRLPPVRPALAPLVAFVALPLPRVEGLPDGAESTNDVPHDRPDMVELHRRAFDGLAAPFSEFLGTACADWVIVDVFHHWAAAAALEHKVPCAMMLLGSAEMIASIADERLEHAETESPAAAGQGRPAAAPTFEVARMKLIR", "values": [
      {"measurement": "FI %Stevioside→rebE", "value": 2.6},
      {"measurement": "FI %rebA→rebD", "value": 2.1}
    ]},
    {"molecule": "A451L: mutation to UGT enzyme of SEQ ID NO: 13 (protein) MATKGSSGMSLAERFWLTLSRSSLVVGRSCVEFEPETVPLLSTLRGKPITFLGLMPPLHEGRREDGEDATVRWLDAQPAKSVVYVALGSEVPLGVEKVHELALGLELAGTRFLWALRKPTGVSDADLLPAGFEERTRGRGVVATRWVPQMSILAHAAVGAFLTHCGWNSTIEGLMFGHPLIMLPIFGDQGPNARLIEAKNAGLQVARNDGDGSFDREGVAAAIRAVAVEEESSKVFQAKAKKLQEIVADMACHERYIDGFIQQLRSYKDDSGYSSSYAAAAGMHVVICPWLAFGHLLPCLDLAQRLASRGHRVSFVSTPRNISRLPPVRPALAPLVAFVALPLPRVEGLPDGAESTNDVPHDRPDMVELHRRAFDGLAAPFSEFLGTACADWVIVDVFHHWAAAAALEHKVPCAMMLLGSAEMIASIADERLEHAETESPAAAGQGRPAALPTFEVARMKLIR", "values": [
      {"measurement": "FI %Stevioside→rebE", "value": 1.4},
      {"measurement": "FI %rebA→rebD", "value": 1.5}
    ]},
    {"molecule": "F186M: mutation to UGT enzyme of SEQ ID NO: 13 (protein) MATKGSSGMSLAERFWLTLSRSSLVVGRSCVEFEPETVPLLSTLRGKPITFLGLMPPLHEGRREDGEDATVRWLDAQPAKSVVYVALGSEVPLGVEKVHELALGLELAGTRFLWALRKPTGVSDADLLPAGFEERTRGRGVVATRWVPQMSILAHAAVGAFLTHCGWNSTIEGLMFGHPLIMLPIMGDQGPNARLIEAKNAGLQVARNDGDGSFDREGVAAAIRAVAVEEESSKVFQAKAKKLQEIVADMACHERYIDGFIQQLRSYKDDSGYSSSYAAAAGMHVVICPWLAFGHLLPCLDLAQRLASRGHRVSFVSTPRNISRLPPVRPALAPLVAFVALPLPRVEGLPDGAESTNDVPHDRPDMVELHRRAFDGLAAPFSEFLGTACADWVIVDVFHHWAAAAALEHKVPCAMMLLGSAEMIASIADERLEHAETESPAAAGQGRPAAAPTFEVARMKLIR", "values": [
      {"measurement": "FI %Stevioside→rebE", "value": 2.9},
      {"measurement": "FI %rebA→rebD", "value": 2.3}
    ]},
    {"molecule": "V397S: mutation to UGT enzyme of SEQ ID NO: 13 (protein) MATKGSSGMSLAERFWLTLSRSSLVVGRSCVEFEPETVPLLSTLRGKPITFLGLMPPLHEGRREDGEDATVRWLDAQPAKSVVYVALGSEVPLGVEKVHELALGLELAGTRFLWALRKPTGVSDADLLPAGFEERTRGRGVVATRWVPQMSILAHAAVGAFLTHCGWNSTIEGLMFGHPLIMLPIFGDQGPNARLIEAKNAGLQVARNDGDGSFDREGVAAAIRAVAVEEESSKVFQAKAKKLQEIVADMACHERYIDGFIQQLRSYKDDSGYSSSYAAAAGMHVVICPWLAFGHLLPCLDLAQRLASRGHRVSFVSTPRNISRLPPVRPALAPLVAFVALPLPRVEGLPDGAESTNDVPHDRPDMVELHRRAFDGLAAPFSEFLGTACADWVIVDSFHHWAAAAALEHKVPCAMMLLGSAEMIASIADERLEHAETESPAAAGQGRPAAAPTFEVARMKLIR", "values": [
      {"measurement": "FI %Stevioside→rebE", "value": 3.8},
      {"measurement": "FI %rebA→rebD", "value": 3.4}
    ]},
    {"molecule": "A451T: mutation to UGT enzyme of SEQ ID NO: 13 (protein) MATKGSSGMSLAERFWLTLSRSSLVVGRSCVEFEPETVPLLSTLRGKPITFLGLMPPLHEGRREDGEDATVRWLDAQPAKSVVYVALGSEVPLGVEKVHELALGLELAGTRFLWALRKPTGVSDADLLPAGFEERTRGRGVVATRWVPQMSILAHAAVGAFLTHCGWNSTIEGLMFGHPLIMLPIFGDQGPNARLIEAKNAGLQVARNDGDGSFDREGVAAAIRAVAVEEESSKVFQAKAKKLQEIVADMACHERYIDGFIQQLRSYKDDSGYSSSYAAAAGMHVVICPWLAFGHLLPCLDLAQRLASRGHRVSFVSTPRNISRLPPVRPALAPLVAFVALPLPRVEGLPDGAESTNDVPHDRPDMVELHRRAFDGLAAPFSEFLGTACADWVIVDVFHHWAAAAALEHKVPCAMMLLGSAEMIASIADERLEHAETESPAAAGQGRPAATPTFEVARMKLIR", "values": [
      {"measurement": "FI %Stevioside→rebE", "value": 1.8},
      {"measurement": "FI %rebA→rebD", "value": 2.0}
    ]},
    {"molecule": "T453R: mutation to UGT enzyme of SEQ ID NO: 13 (protein) MATKGSSGMSLAERFWLTLSRSSLVVGRSCVEFEPETVPLLSTLRGKPITFLGLMPPLHEGRREDGEDATVRWLDAQPAKSVVYVALGSEVPLGVEKVHELALGLELAGTRFLWALRKPTGVSDADLLPAGFEERTRGRGVVATRWVPQMSILAHAAVGAFLTHCGWNSTIEGLMFGHPLIMLPIFGDQGPNARLIEAKNAGLQVARNDGDGSFDREGVAAAIRAVAVEEESSKVFQAKAKKLQEIVADMACHERYIDGFIQQLRSYKDDSGYSSSYAAAAGMHVVICPWLAFGHLLPCLDLAQRLASRGHRVSFVSTPRNISRLPPVRPALAPLVAFVALPLPRVEGLPDGAESTNDVPHDRPDMVELHRRAFDGLAAPFSEFLGTACADWVIVDVFHHWAAAAALEHKVPCAMMLLGSAEMIASIADERLEHAETESPAAAGQGRPAAAPRFEVARMKLIR", "values": [
      {"measurement": "FI %Stevioside→rebE", "value": 1.4},
      {"measurement": "FI %rebA→rebD", "value": 1.6}
    ]},
    {"molecule": "V456S: mutation to UGT enzyme of SEQ ID NO: 13 (protein) MATKGSSGMSLAERFWLTLSRSSLVVGRSCVEFEPETVPLLSTLRGKPITFLGLMPPLHEGRREDGEDATVRWLDAQPAKSVVYVALGSEVPLGVEKVHELALGLELAGTRFLWALRKPTGVSDADLLPAGFEERTRGRGVVATRWVPQMSILAHAAVGAFLTHCGWNSTIEGLMFGHPLIMLPIFGDQGPNARLIEAKNAGLQVARNDGDGSFDREGVAAAIRAVAVEEESSKVFQAKAKKLQEIVADMACHERYIDGFIQQLRSYKDDSGYSSSYAAAAGMHVVICPWLAFGHLLPCLDLAQRLASRGHRVSFVSTPRNISRLPPVRPALAPLVAFVALPLPRVEGLPDGAESTNDVPHDRPDMVELHRRAFDGLAAPFSEFLGTACADWVIVDVFHHWAAAAALEHKVPCAMMLLGSAEMIASIADERLEHAETESPAAAGQGRPAAAPTFESARMKLIR", "values": [
      {"measurement": "FI %Stevioside→rebE", "value": 1.5},
      {"measurement": "FI %rebA→rebD", "value": 1.6}
    ]},
    {"molecule": "T453K: mutation to UGT enzyme of SEQ ID NO: 13 (protein) MATKGSSGMSLAERFWLTLSRSSLVVGRSCVEFEPETVPLLSTLRGKPITFLGLMPPLHEGRREDGEDATVRWLDAQPAKSVVYVALGSEVPLGVEKVHELALGLELAGTRFLWALRKPTGVSDADLLPAGFEERTRGRGVVATRWVPQMSILAHAAVGAFLTHCGWNSTIEGLMFGHPLIMLPIFGDQGPNARLIEAKNAGLQVARNDGDGSFDREGVAAAIRAVAVEEESSKVFQAKAKKLQEIVADMACHERYIDGFIQQLRSYKDDSGYSSSYAAAAGMHVVICPWLAFGHLLPCLDLAQRLASRGHRVSFVSTPRNISRLPPVRPALAPLVAFVALPLPRVEGLPDGAESTNDVPHDRPDMVELHRRAFDGLAAPFSEFLGTACADWVIVDVFHHWAAAAALEHKVPCAMMLLGSAEMIASIADERLEHAETESPAAAGQGRPAAAPKFEVARMKLIR", "values": [
      {"measurement": "FI %Stevioside→rebE", "value": 1.4},
      {"measurement": "FI %rebA→rebD", "value": 1.6}
    ]},
    {"molecule": "V397C: mutation to UGT enzyme of SEQ ID NO: 13 (protein) MATKGSSGMSLAERFWLTLSRSSLVVGRSCVEFEPETVPLLSTLRGKPITFLGLMPPLHEGRREDGEDATVRWLDAQPAKSVVYVALGSEVPLGVEKVHELALGLELAGTRFLWALRKPTGVSDADLLPAGFEERTRGRGVVATRWVPQMSILAHAAVGAFLTHCGWNSTIEGLMFGHPLIMLPIFGDQGPNARLIEAKNAGLQVARNDGDGSFDREGVAAAIRAVAVEEESSKVFQAKAKKLQEIVADMACHERYIDGFIQQLRSYKDDSGYSSSYAAAAGMHVVICPWLAFGHLLPCLDLAQRLASRGHRVSFVSTPRNISRLPPVRPALAPLVAFVALPLPRVEGLPDGAESTNDVPHDRPDMVELHRRAFDGLAAPFSEFLGTACADWVIVDCFHHWAAAAALEHKVPCAMMLLGSAEMIASIADERLEHAETESPAAAGQGRPAAAPTFEVARMKLIR", "values": [
      {"measurement": "FI %Stevioside→rebE", "value": 1.9},
      {"measurement": "FI %rebA→rebD", "value": 1.9}
    ]},
    {"molecule": "F186T: mutation to UGT enzyme of SEQ ID NO: 13 (protein) MATKGSSGMSLAERFWLTLSRSSLVVGRSCVEFEPETVPLLSTLRGKPITFLGLMPPLHEGRREDGEDATVRWLDAQPAKSVVYVALGSEVPLGVEKVHELALGLELAGTRFLWALRKPTGVSDADLLPAGFEERTRGRGVVATRWVPQMSILAHAAVGAFLTHCGWNSTIEGLMFGHPLIMLPITGDQGPNARLIEAKNAGLQVARNDGDGSFDREGVAAAIRAVAVEEESSKVFQAKAKKLQEIVADMACHERYIDGFIQQLRSYKDDSGYSSSYAAAAGMHVVICPWLAFGHLLPCLDLAQRLASRGHRVSFVSTPRNISRLPPVRPALAPLVAFVALPLPRVEGLPDGAESTNDVPHDRPDMVELHRRAFDGLAAPFSEFLGTACADWVIVDVFHHWAAAAALEHKVPCAMMLLGSAEMIASIADERLEHAETESPAAAGQGRPAAAPTFEVARMKLIR", "values": [
      {"measurement": "FI %Stevioside→rebE", "value": 1.8},
      {"measurement": "FI %rebA→rebD", "value": 1.7}
    ]}
  ]
}
